Assay [1] deals with HER1/2 VA (Homo sapiens (Human)) (UniProt P00533).
For assay [2], the target named is chimera EGF-R/ERBB2 (HER 1/2) (Homo sapiens (Human)) (UniProt P00533).

Experimental findings from patent US20040014055A1 are described below.

Regarding Erbin of the MDCK cells, the basolateral localisation of the receptor on MDCK transfectants (biotinylation of the cell surface, autoradiography) (% basolateral) is 53 in assay [1] and 83 in assay [2].
